Several values for one entry are separate records, joined by “and”; a condition that tells them apart may be missing. Equal entries are not always repeated.
Tested on: Bacillus subtilis DB104 (SP-AmyQ fusion secretion)
Experiment: AmyQ secretion efficiency, weighted average sort bin (1 = best secretion, 10 = worst) (bin number (weighted average, 1-10)); higher = lower secretion efficiency
In short: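 With fluorescein-starch as substrate, a B. subtilis DB104 library expressing mature AmyQ fused to designed signal peptides (integrated at amyE) was encapsulated at about 0.3 cells per ~65 nL alginate bead. After about 13 h at room temperature, beads were nile red stained, and occupied beads were sorted by large-particle flow cytometry into 10 equally populated bins by green/red fluorescence ratio. Illumina sequencing of the amplicons in each bin was used to calculate the secretion score, which is the read-frequency-weighted average bin number, normalised to beads per bin, with low-abundance sequences left out.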

MRKILLSSALSLGMLVSAAPVLATSS
AmyQ secretion efficiency: 1.66

MIVIILLFISIIVFLSVIQPQPS
AmyQ secretion efficiency: 8.27 and 5.9 and 6.5

MKRSISIFITCLLITLLTMGGMIASPASTAGT
AmyQ secretion efficiency: 4.46

MKRIRIPMTLALGAALTIAPLSFKSAEEN
AmyQ secretion efficiency: 6.9

MHLIRAAGAVCLAVVLIAGCREAEGENT
AmyQ secretion efficiency: 4.69

MKKVLMAFIICLSLILSVLAAPPSGMKAESV
AmyQ secretion efficiency: 1.84

MKKRKRRNFKRFIAAFLVLALMIRRVPARVLAKST
AmyQ secretion efficiency: 6.23

MKKLLAAGIIGLLTVFIAVPSFAAEK
AmyQ secretion efficiency: 2.33

MRKKCSKCKWSTTSLLSCLSGKSAYAATS
AmyQ secretion efficiency: 7.94

MLCVMMLLFSAIASFPVSNQAKDQ
AmyQ secretion efficiency: 5.37

MKTPKGMLLSTAAGLLLSLTATSVSAHYV
AmyQ secretion efficiency: 5.33

MKRLLSTLLIGIMLLTFAPSAFWKQD
AmyQ secretion efficiency: 6.93

MKKTIMSFVAVAALSTTAFGAHASPKEI
AmyQ secretion efficiency: 3.96

MTKLKMLSMLTVMIASLFIFSSQALAKRK
AmyQ secretion efficiency: 4.03

MAIIIAIIAAVIVIAALITFNVWNASPG
AmyQ secretion efficiency: 7.05

MTMLRKIIGWILLLCPLFAFTVIASGKEV
AmyQ secretion efficiency: 8.01

MKRITINSNFSNIITMFIAAAVISLTGTAEAAEK
AmyQ secretion efficiency: 3.07

MKVLLSALLLLLFAFEPSASKKKL
AmyQ secretion efficiency: 6.2

MKQFAITLSVLCALILLVPTLLVIPFVSAAEAGASV
AmyQ secretion efficiency: 3.34

MFNRLFRVCFLAALIMAFTLPNSWYAQKP
AmyQ secretion efficiency: 7.03

MKLKKRVSMFLVALTMCGGLFVTPVKAVKT
AmyQ secretion efficiency: 2.64

MKKTIMSFFFVAVAALSTTAFGAHASAKEI
AmyQ secretion efficiency: 2.53

MLCVMMLLFSAIAVSFPVSAQAKDQ
AmyQ secretion efficiency: 5.09

MKKAAAVLLSLGLVFGFSYGAGHVAEYKTK
AmyQ secretion efficiency: 6.37

MKKVLMAFIICLSLILVVLAAGPSTAKAESV
AmyQ secretion efficiency: 1.98

MKKAFLVFLSVVVKQQESVAQAKQL
AmyQ secretion efficiency: 7.51

MLKRTSFVSSLFISSAVLLSILLIASTAHAQSA
AmyQ secretion efficiency: 3.17

MKRIRIPMTLALGAALTIAPLSFAFTASAEEN
AmyQ secretion efficiency: 3.82

MKLWMRKTLVVLFLIVFFFLGTVSPPAALMADKP
AmyQ secretion efficiency: 3.95

MKKRKKKFFGPIILAFILFAGAIAIPS
AmyQ secretion efficiency: 6.45

MKRLLSTLLIGIMLLFFIFFTFAPSAFAKQD
AmyQ secretion efficiency: 1.97

MKKWMILILAGIALFVFISPLKSHKT
AmyQ secretion efficiency: 7.86

MRGKSAVLLSLIMLIAGFLINFSFQM
AmyQ secretion efficiency: 6.91

MLKKIALTLCPAIVGSLLFFTAPCSAHVS
AmyQ secretion efficiency: 3.32

MKWMCSICCAAVLLAGAAAAQAEAV
AmyQ secretion efficiency: 4.13

MKKRWRKTSQAAVLLLMVPKVSLADAA
AmyQ secretion efficiency: 7.38

MLTFLIGAGVAAVILSGWFIADHQTHSQEM
AmyQ secretion efficiency: 6.55

MKRKKKRLCVMMLLFSAIASFPVSAQAKDQ
AmyQ secretion efficiency: 3.18

MKKAFLVFLSVVLVTTVFLVKQQESVDQAKQL
AmyQ secretion efficiency: 5.67

MKKRLIGFLVLVPALIMSGITLIECNKK
AmyQ secretion efficiency: 6.67

MKNMSCKLVVSVTLFFSFLTIGPLFHAQNS
AmyQ secretion efficiency: 5.19

MKQIMIFLTSFMLLAMTGQTALAADE
AmyQ secretion efficiency: 3.7

MILRKVLTGSVLSLGLLVSASPAFATSP
AmyQ secretion efficiency: 1.73

MKKRKRRNFKRFIAAFLVLALMISLVPADMLAKST
AmyQ secretion efficiency: 1.76

MKWMCSTCCAAVLLAGGAAQAEAV
AmyQ secretion efficiency: 2.63

MKKKRRRVLMAFIICLSLILSVLAAPPSGAKAESV
AmyQ secretion efficiency: 2

MRFTKVVGFLSVLGLAADEDLTAQAEKA
AmyQ secretion efficiency: 3.78

MKRIRIPMTLALGAALTIAPLSFASFEEN
AmyQ secretion efficiency: 6.34

MKKAAAVLLSLGLVFGFSYGAGHVNEAKTK
AmyQ secretion efficiency: 5.96

MKKCLLFLTTIALILISLSTNAFAKNT
AmyQ secretion efficiency: 2.13

MFNRLFRVCFLAALIMAFFLGNSVYAQKP
AmyQ secretion efficiency: 2.37

MLKKKWMVGLLAGCLAAGGFSYNAFATKK
AmyQ secretion efficiency: 4.27

MFKKHTISLLIIFLLASAVLAKPIEARKK
AmyQ secretion efficiency: 2.26

MKKSQYFIVFICFFVLFSVHPIALAAADS
AmyQ secretion efficiency: 3.9

MKTLRTLCVLMILSGVIFFGLKLDAKDI
AmyQ secretion efficiency: 7.62

MKLWMRKTLVVLFTIVTFGLVSPPAALMCDKP
AmyQ secretion efficiency: 2.74

MRNLTKTSLLLAGLCQMVFVTHASAEES
AmyQ secretion efficiency: 3.18

MTMLRKIIGWILLLCIIVSVAATITLIPLFAFTVIASGKEV
AmyQ secretion efficiency: 4.26

MMVCMKSIVRFLVSLIIGTFVISVPFMANAQSD
AmyQ secretion efficiency: 2.06

MTGGSAVLLSLIMLIAGFLISFSFQM
AmyQ secretion efficiency: 7.63

MKRMIVRMTLPLLIVCLAFSKDSASARAASE
AmyQ secretion efficiency: 1.93

MRSYIKVLTMCFLGLILFVFTALADNS
AmyQ secretion efficiency: 7.29

MRKRKRRLILSAVLFLSCFFGARQTEASASKR
AmyQ secretion efficiency: 2.98

MKLAKRVSALTPSTTLAITDKAKEL
AmyQ secretion efficiency: 7.38

MKRTWNVCLTALLSVLLVAGSVKRKKHAEAKKP
AmyQ secretion efficiency: 7.43

MRPVFPLILSAVLFLSCFFGARQTEASNSKR
AmyQ secretion efficiency: 2.41

MKKWIYVRKKRSIAGIGGFSVHAASS
AmyQ secretion efficiency: 7.24

MKRKKKKASLVLFAVVFVFAVKGAPAKAETH
AmyQ secretion efficiency: 2

MKKIWIGMLAAAVLLLMVPKVSLAAAD
AmyQ secretion efficiency: 5.09

MKVLLSALLLLLFAFEPSNSGKKL
AmyQ secretion efficiency: 6.02

MKRFLIGAGVAAVILSGWFIADHQTHGQEM
AmyQ secretion efficiency: 5.37

MKLSVKIAGVLTVAAAAMTAKMYATLKGN
AmyQ secretion efficiency: 7.31

MLKNRILALFVLSLGLLSFMVTPVSAASK
AmyQ secretion efficiency: 1.67

MGMKKKLSLGVASAALGLALVGRRKRKKTWAAFN
AmyQ secretion efficiency: 6.59

MKRLFISSAVLLSILLPSGQAHAQSA
AmyQ secretion efficiency: 2.34

MKKLLAAGIIGLLTVSIASPSFRAEK
AmyQ secretion efficiency: 7.12

MKVCQKSIVRSQRSLIIGTFVISVPFMANAQSD
AmyQ secretion efficiency: 5.65

MKLAKRVSALTPSTTLAITAKAAED
AmyQ secretion efficiency: 5.72

MKRRKRRYLLLGILCSAAVFLIGAPSRALGAEV
AmyQ secretion efficiency: 1.61

MKLAKRVSALTPSTTLAITAKFKEL
AmyQ secretion efficiency: 7.68

MKKRITYSLLALLAVVAFAFTDSSKAKAASA
AmyQ secretion efficiency: 2.18

MLKKVRKRRKKLVGSTLGAFSFSSDASAKHV
AmyQ secretion efficiency: 6.7

MRMLWRSLALCGLALTLAPCAQADDD
AmyQ secretion efficiency: 4.62

MKKLLAAGIIGLLTVRKKSPSFAAEK
AmyQ secretion efficiency: 8.11

MRNLTKTSLLLAGLCTAAQMVFVTHASAATD
AmyQ secretion efficiency: 2.35

MRKKLKWLSFLLGFIILLFLFKYQRSNNDS
AmyQ secretion efficiency: 7.7

MRGKSIAVLLSLIMLIAGFLISFSFQM
AmyQ secretion efficiency: 5.87

MKRFSTAYLLLGILCSAAVFLIGAPSRALGAPK
AmyQ secretion efficiency: 1.81

MTMLRKIIGWILLLCIIATPLFAFTVIASGKEV
AmyQ secretion efficiency: 5.08

MKKKLAAGLTASAIVGTTLVVTPTEAATI
AmyQ secretion efficiency: 2.75

MTMLRKIIGWILLLCIIPLFAFTVISSGKEV
AmyQ secretion efficiency: 6.13

MKRLTLVCSIVFILFILFYDLKIGTDEASAKTA
AmyQ secretion efficiency: 4.35

MSNLCVMMLLFSAIASFPVSAQAKDQ
AmyQ secretion efficiency: 3.93

MKKQIITATTAVVLGSTLFAEDDDDEASAQSI
AmyQ secretion efficiency: 3.86

MKKLRKKKKKGLLTVSIASPSFAAEK
AmyQ secretion efficiency: 7.52

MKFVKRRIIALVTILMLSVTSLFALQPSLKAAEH
AmyQ secretion efficiency: 2.75

MRPVFPLILSAVLFLSCFFGARQTEASESKR
AmyQ secretion efficiency: 2.54

MKKSQYFIVFICFFVLFSVHPIAFTPSAAAADS
AmyQ secretion efficiency: 2.09

MKKTSGTKYKCQSLILSVLAAPPSGAKAESV
AmyQ secretion efficiency: 7.18

MRSYIKVLTMCFLGLILFVPTRLADNS
AmyQ secretion efficiency: 6.28

MKKRLIAPMLKRKKRRAFFAMSGSAQAAAY
AmyQ secretion efficiency: 7.88

MKLKKRVSMSSMFLVALTMCGGLFVTPAKAVKT
AmyQ secretion efficiency: 1.95

MKVLLSALLLLLFAFEPSPSGKKL
AmyQ secretion efficiency: 6.9

MRKKRVKRCVMAASLTLGSLLPAGYASAKED
AmyQ secretion efficiency: 3.34

MKKLLAAGIIGLLTVSIASPSFPAEK
AmyQ secretion efficiency: 7.88

MKKRFFGPIILAFAGAIAIPS
AmyQ secretion efficiency: 9.34

MKKLAAGLTASAIVGTTLVVTPAEAATI
AmyQ secretion efficiency: 2.27

MKKEGKQYSRLCLSLSPLVSTNEVFAATT
AmyQ secretion efficiency: 7.68

MKVLLSALLLLLFAFEPSESGKKL
AmyQ secretion efficiency: 6.5

MNKLKRLSMLTVMIASVFIFSSSALAAQY
AmyQ secretion efficiency: 2.06

MRKKLKWLSFLLGFIILLFLFKYQFSQNDS
AmyQ secretion efficiency: 8.41

MKKKLAAGLTASAIVGTTLVVTPAEYATI
AmyQ secretion efficiency: 6.06

MKKLVLCVSILAVILSGVGLTQLS
AmyQ secretion efficiency: 5.94

MKNMSCKGVVSVTLFFSFLTIGPLAHAQNS
AmyQ secretion efficiency: 1.49

MKRYYVRMTLPLLIVCLAFSSFSASARAASE
AmyQ secretion efficiency: 2.74

MNKKYFVLIVCIIFTSALFPTFSSCTAAQG
AmyQ secretion efficiency: 1.18

MKKWMITIAMLILAGIALFVFISPNKSHKT
AmyQ secretion efficiency: 5.8

MPYLKRVLLLLVTGLFMSLFAVTATASGQTG
AmyQ secretion efficiency: 1.24

MRNLTKYTTSKGGLCTAAQMVFVTHASAEES
AmyQ secretion efficiency: 7.66

MKKIMIFLTSFMLLAMTGQTALAKDV
AmyQ secretion efficiency: 3.4

MKLSVKIAGVLTVAAAAMTAKMYATAEEE
AmyQ secretion efficiency: 6.08

MFSKWMSGLLLVAVGFSFTQVMVHAGET
AmyQ secretion efficiency: 6.12

MTMLRKIIGWILLLCIIKKRRRRVIASGKEV
AmyQ secretion efficiency: 7.19

MPYLKRVLLLLVTGLFMSLFAVTATASSQTG
AmyQ secretion efficiency: 1.19

MRMLWRSSSQCGLALTLAPCAQAAEP
AmyQ secretion efficiency: 8.18

MLKKKWMVGLLAGCLAAGGFSYNTFATEN
AmyQ secretion efficiency: 5.24

MLKKKKTQYQILVGSTLGAFSFSSDASAKHV
AmyQ secretion efficiency: 5.99

MKKAAAVLLSLGLVFGFSYGAGHVAEAATD
AmyQ secretion efficiency: 3.51

From the supplement of paper PMC9942255
